From patent publication US20230340058A1

Target: human RXFP1, full-length (human), Q9HBX9
Experiment: cell-based or functional assay

human RXFP1, full-length (human), Q9HBX9, sequence (Q9HBX9 whole entry): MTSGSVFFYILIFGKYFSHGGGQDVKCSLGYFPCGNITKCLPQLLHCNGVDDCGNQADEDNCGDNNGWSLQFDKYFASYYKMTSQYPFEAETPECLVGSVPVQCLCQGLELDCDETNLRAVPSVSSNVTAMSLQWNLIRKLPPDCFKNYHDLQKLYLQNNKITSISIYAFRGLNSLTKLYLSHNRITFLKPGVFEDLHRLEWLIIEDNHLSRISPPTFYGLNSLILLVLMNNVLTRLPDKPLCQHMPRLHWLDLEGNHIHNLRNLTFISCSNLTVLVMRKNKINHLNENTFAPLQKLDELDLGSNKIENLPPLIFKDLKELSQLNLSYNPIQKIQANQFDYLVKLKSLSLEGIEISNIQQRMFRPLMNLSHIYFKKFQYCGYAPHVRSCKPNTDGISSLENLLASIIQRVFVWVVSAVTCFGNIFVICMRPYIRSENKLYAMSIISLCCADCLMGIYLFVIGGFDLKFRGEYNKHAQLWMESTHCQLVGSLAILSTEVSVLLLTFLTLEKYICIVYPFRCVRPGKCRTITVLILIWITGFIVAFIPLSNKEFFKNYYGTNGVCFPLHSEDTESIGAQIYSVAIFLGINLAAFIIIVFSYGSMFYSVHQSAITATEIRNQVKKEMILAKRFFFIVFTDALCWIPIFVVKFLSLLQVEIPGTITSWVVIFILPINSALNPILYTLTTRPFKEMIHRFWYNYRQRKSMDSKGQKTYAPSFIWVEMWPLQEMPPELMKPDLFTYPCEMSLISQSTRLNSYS

Row | Binder | Potency Assay EC50 (nM), transient hRXFP1 cAMP assay [nM] | EC50 in nM (cAMP Response in RXFP1 Transfected HEK293 Cells) [nM] | pEC50 (cAMP Response in RXFP1 Transfected HEK293 Cells)
1 | SEQ ID NO: 205 (Fc fusion) DKTHTCPPCPAPEAAGGPSVFLFPPKPKDTLMISRTPEVTCVVVDVSHEDPEVKFNWYVDGVEVHNAKTKPREEQYNSTYRVVSVLTVLHQDWLNGKEYKCKVSNKALAAPIEKTISKAKGQPREPQVYTLPPSRDELTKNQVSLTCLVKGFYPSDIAVEWESNGQPENNYKTTPPVLDSDGSFFLYSKLTVDKSRWQQGNVFSCSVLHEALHSHYTQKSLSLSPGKGGSDSWKEEVIKLCGRELVRAQIAICGKSTGGGEGGGEGGGEGGGQLYSALANKCCHVGCTKRSLARFC | 12.3 | – | –
2 | SEQ ID NO: 60 (Fc fusion) DKTHTCPPCPAPEAAGGPSVFLFPPKPKDTLMISRTPEVTCVVVDVSHEDPEVKFNWYVDGVEVHNAKTKPREEQYNSTYRVVSVLTVLHQDWLNGKEYKCKVSNKALAAPIEKTISKAKGQPREPQVYTLPPSRDELTKNQVSLTCLVKGFYPSDIAVEWESNGQPENNYKTTPPVLDSDGSFFLYSKLTVDKSRWQQGNVFSCSVLHEALHSHYTQKSLSLSPGKGGSDSWQEEVIKLCGRELVRAQIAICGKSTGGGEGGGEGGGEGGGQLYSALANKCCHVGCTKRSLARFC | 15.8 | – | –
3 | SEQ ID NO: 204 (Fc fusion) DKTHTCPPCPAPEAAGGPSVFLFPPKPKDTLMISRTPEVTCVVVDVSHEDPEVKFNWYVDGVEVHNAKTKPREEQYNSTYRVVSVLTVLHQDWLNGKEYKCKVSNKALAAPIEKTISKAKGQPREPQVYTLPPSRDELTKNQVSLTCLVKGFYPSDIAVEWESNGQPENNYKTTPPVLDSDGSFFLYSKLTVDKSRWQQGNVFSCSVLHEALHSHYTQKSLSLSPGKGGSDSWKEEVIKLCGRELVRAQIAICGKSTGGGEGGGEGGGEGRQLYSALANKCCHVGCTKRSLARFC | 2.5 | – | –
4 | SEQ ID NO: 57 (Fc fusion) DKTHTCPPCPAPEAAGGPSVFLFPPKPKDTLMISRTPEVTCVVVDVSHEDPEVKFNWYVDGVEVHNAKTKPREEQYNSTYRVVSVLTVLHQDWLNGKEYKCKVSNKALAAPIEKTISKAKGQPREPQVYTLPPSRDELTKNQVSLTCLVKGFYPSDIAVEWESNGQPENNYKTTPPVLDSDGSFFLYSKLTVDKSRWQQGNVFSCSVLHEALHSHYTQKSLSLSPGKGGSDSWQEEVIKLCGRELVRAQIAICGKSTGGGEGGGEGGGEGRQLYSALANKCCHVGCTKRSLARFC | 2.5 | – | –
5 | SEQ ID NO: 74 (Fc fusion) DKTHTCPPCPAPEAAGGPSVFLFPPKPKDTLMISRTPEVTCVVVDVSHEDPEVKFNWYVDGVEVHNAKTKPREEQYNSTYRVVSVLTVLHQDWLNGKEYKCKVSNKALAAPIEKTISKAKGQPREPQVYTLPPSRDELTKNQVSLTCLVKGFYPSDIAVEWESNGQPENNYKTTPPVLDSDGSFFLYSKLTVDKSRWQQGNVFSCSVLHEALHSHYTQKSLSLSPGKGGSDSWQEEVIKLCGRELVRAQIAICGKSTGGGEEGGGEEGGGRQLYSALANKCCHVGCTKRSLAQFC | 10.2 | – | –
6 | SEQ ID NO: 66 (Fc fusion) DKTHTCPPCPAPEAAGGPSVFLFPPKPKDTLMISRTPEVTCVVVDVSHEDPEVKFNWYVDGVEVHNAKTKPREEQYNSTYRVVSVLTVLHQDWLNGKEYKCKVSNKALAAPIEKTISKAKGQPREPQVYTLPPSRDELTKNQVSLTCLVKGFYPSDIAVEWESNGQPENNYKTTPPVLDSDGSFFLYSKLTVDKSRWQQGNVFSCSVLHEALHSHYTQKSLSLSPGKGGSDSWQEEVIKLCGRELVRAQIAICGKSTGGGEGGGEGGGEGRQLYSALANKCCHVGCTKRSLAQFC | 4.2 | – | –
7 | SEQ ID NO: 206 (Fc fusion) DKTHTCPPCPAPEAAGGPSVFLFPPKPKDTLMISRTPEVTCVVVDVSHEDPEVKFNWYVDGVEVHNAKTKPREEQYNSTYRVVSVLTVLHQDWLNGKEYKCKVSNKALAAPIEKTISKAKGQPREPQVYTLPPSRDELTKNQVSLTCLVKGFYPSDIAVEWESNGQPENNYKTTPPVLDSDGSFFLYSKLTVDKSRWQQGNVFSCSVLHEALHSHYTQKSLSLSPGKGGSDSWMEEVIKLCGRELVRAQIAICGKSTGGGEGGGEGGGEGRQLYSALANKCCHVGCTKRSLARFC | 2.9 | – | –
8 | SEQ ID NO: 72 (Fc fusion) DKTHTCPPCPAPEAAGGPSVFLFPPKPKDTLMISRTPEVTCVVVDVSHEDPEVKFNWYVDGVEVHNAKTKPREEQYNSTYRVVSVLTVLHQDWLNGKEYKCKVSNKALAAPIEKTISKAKGQPREPQVYTLPPSRDELTKNQVSLTCLVKGFYPSDIAVEWESNGQPENNYKTTPPVLDSDGSFFLYSKLTVDKSRWQQGNVFSCSVLHEALHSHYTQKSLSLSPGKGGSDSWQEEVIKLCGRELVRAQIAICGKSTGGGEEGGGEEGGGRQLYSALANKCCHVGCTKRSLARFC | 5.8 | – | –
9 | SEQ ID NO: 70 (Fc fusion) DKTHTCPPCPAPEAAGGPSVFLFPPKPKDTLMISRTPEVTCVVVDVSHEDPEVKFNWYVDGVEVHNAKTKPREEQYNSTYRVVSVLTVLHQDWLNGKEYKCKVSNKALAAPIEKTISKAKGQPREPQVYTLPPSRDELTKNQVSLTCLVKGFYPSDIAVEWESNGQPENNYKTTPPVLDSDGSFFLYSKLTVDKSRWQQGNVFSCSVLHEALHSHYTQKSLSLSPGGGSDSWQEEVIKLCGRELVRAQIAICGKSTGGGEGGGEGGGEGRQLYSALANKCCHVGCTKRSLAQFC | 8 | – | –
10 | SEQ ID NO: 68 (Fc fusion) DKTHTCPPCPAPEAAGGPSVFLFPPKPKDTLMISRTPEVTCVVVDVSHEDPEVKFNWYVDGVEVHNAKTKPREEQYNSTYRVVSVLTVLHQDWLNGKEYKCKVSNKALAAPIEKTISKAKGQPREPQVYTLPPSRDELTKNQVSLTCLVKGFYPSDIAVEWESNGQPENNYKTTPPVLDSDGSFFLYSKLTVDKSRWQQGNVFSCSVLHEALHSHYTQKSLSLSPGGGSDSWQEEVIKLCGRELVRAQIAICGKSTGGGEGGGEGGGEGRQLYSALANKCCHVGCTKRSLARFC | 3.3 | – | –
11 | Relaxin-2 (R&D Biosystems 6586-RN-025) (ligand) chain 1: DSWMEEVIKLCGRELVRAQIAICGMSTWS chain 2: QLYSALANKCCHVGCTKRSLARFC | 0.1 | 0.042 | 10.4

Second part, the binder after the results:

Row | Potency Assay EC50 (nM), transient hRXFP1 cAMP assay [nM] | EC50 in nM (cAMP Response in RXFP1 Transfected HEK293 Cells) [nM] | pEC50 (cAMP Response in RXFP1 Transfected HEK293 Cells) | Binder
12 | 16 | – | – | SEQ ID NO: 207 (Fc fusion) DKTHTCPPCPAPEAAGGPSVFLFPPKPKDTLMISRTPEVTCVVVDVSHEDPEVKFNWYVDGVEVHNAKTKPREEQYNSTYRVVSVLTVLHQDWLNGKEYKCKVSNKALAAPIEKTISKAKGQPREPQVYTLPPSRDELTKNQVSLTCLVKGFYPSDIAVEWESNGQPENNYKTTPPVLDSDGSFFLYSKLTVDKSRWQQGNVFSCSVLHEALHSHYTQKSLSLSPGKGGSDSWMEEVIKLCGRELVRAQIAICGKSTGGGEGGGEGGGEGGGQLYSALANKCCHVGCTKRSLARFC
13 | 62.8 | – | – | SEQ ID NO: 209 (Fc fusion) DKTHTCPPCPAPEAAGGPSVFLFPPKPKDTLMISRTPEVTCVVVDVSHEDPEVKFNWYVDGVEVHNAKTKPREEQYNSTYRVVSVLTVLHQDWLNGKEYKCKVSNKALAAPIEKTISKAKGQPREPQVYTLPPSRDELTKNQVSLTCLVKGFYPSDIAVEWESNGQPENNYKTTPPVLDSDGSFFLYSKLTVDKSRWQQGNVFSCSVLHEALHSHYTQKSLSLSPGKGGSDSWQEEVIKLCGRELVRAQIAICGKSTGGEGGGEEGGGEGGQLYSALANKCCHVGCTKRSLARFC
14 | 60.3 | – | – | SEQ ID NO: 208 (Fc fusion) DKTHTCPPCPAPEAAGGPSVFLFPPKPKDTLMISRTPEVTCVVVDVSHEDPEVKFNWYVDGVEVHNAKTKPREEQYNSTYRVVSVLTVLHQDWLNGKEYKCKVSNKALAAPIEKTISKAKGQPREPQVYTLPPSRDELTKNQVSLTCLVKGFYPSDIAVEWESNGQPENNYKTTPPVLDSDGSFFLYSKLTVDKSRWQQGNVFSCSVLHEALHSHYTQKSLSLSPGKGGSDSWMEEVIKLCGRELVRAQIAICGKSTGGEGGGEEGGGEGGQLYSALANKCCHVGCTKRSLARFC
15 | 140 | – | – | SEQ ID NO: 210 (Fc fusion) DKTHTCPPCPAPEAAGGPSVFLFPPKPKDTLMISRTPEVTCVVVDVSHEDPEVKFNWYVDGVEVHNAKTKPREEQYNSTYRVVSVLTVLHQDWLNGKEYKCKVSNKALAAPIEKTISKAKGQPREPQVYTLPPSRDELTKNQVSLTCLVKGFYPSDIAVEWESNGQPENNYKTTPPVLDSDGSFFLYSKLTVDKSRWQQGNVFSCSVLHEALHSHYTQKSLSLSPGGGSDSWMEEVIKLCGRELVRAQIAICGKSTGGEGGGEEGGGEGGQLYSALANKCCHVGCTKRSLARFC
16 | 101 | – | – | SEQ ID NO: 211 (Fc fusion) DKTHTCPPCPAPEAAGGPSVFLFPPKPKDTLMISRTPEVTCVVVDVSHEDPEVKFNWYVDGVEVHNAKTKPREEQYNSTYRVVSVLTVLHQDWLNGKEYKCKVSNKALAAPIEKTISKAKGQPREPQVYTLPPSRDELTKNQVSLTCLVKGFYPSDIAVEWESNGQPENNYKTTPPVLDSDGSFFLYSKLTVDKSRWQQGNVFSCSVLHEALHSHYTQKSLSLSPGGGSDSWQEEVIKLCGRELVRAQIAICGKSTGGEGGGEEGGGEGGQLYSALANKCCHVGCTKRSLARFC
17 | 0.5 | – | – | SEQ ID NO: 212 (Fc fusion) DKTHTCPPCPAPEAAGGPSVFLFPPKPKDTLMISRTPEVTCVVVDVSHEDPEVKFNWYVDGVEVHNAKTKPREEQYNSTYRVVSVLTVLHQDWLNGKEYKCKVSNKALAAPIEKTISKAKGQPREPQVYTLPPSRDELTKNQVSLTCLVKGFYPSDIAVEWESNGQPENNYKTTPPVLDSDGSFFLYSKLTVDKSRWQQGNVFSCSVLHEALHSHYTQKSLSLSPGKGGSDSWKEEVIKLCGRELVRAQIAICGKSTASDAAGANANAGARQLYSALANKCCHVGCTKRSLAQFC
18 | 1.8 | – | – | SEQ ID NO: 213 (Fc fusion) DKTHTCPPCPAPEAAGGPSVFLFPPKPKDTLMISRTPEVTCVVVDVSHEDPEVKFNWYVDGVEVHNAKTKPREEQYNSTYRVVSVLTVLHQDWLNGKEYKCKVSNKALAAPIEKTISKAKGQPREPQVYTLPPSRDELTKNQVSLTCLVKGFYPSDIAVEWESNGQPENNYKTTPPVLDSDGSFFLYSKLTVDKSRWQQGNVFSCSVLHEALHSHYTQKSLSLSPGKGGSDSWKEEVIKLCGRELVRAQIAICGKSTASDAAGANANAGARQLYSALANKCCHVGCTKRSLAEFC
